Values quoted from earlier work as cited in article PMC6375914.

Assays:
Ubc9 (Homo sapiens) [1] = molecular target: Ubc9 (Homo sapiens) (UniProt P63279); assay: SPR
Ubc9 (Homo sapiens) [2] = molecular target: Ubc9 (Homo sapiens) (UniProt P63279); assay: ITC

UniProt P63279, sequence (P63279 2-158): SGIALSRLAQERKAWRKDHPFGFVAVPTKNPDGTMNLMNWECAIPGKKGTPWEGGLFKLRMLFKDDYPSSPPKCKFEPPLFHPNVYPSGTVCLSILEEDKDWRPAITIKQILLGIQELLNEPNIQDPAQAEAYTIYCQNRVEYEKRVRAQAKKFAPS

Question: For SUMO1 (from UniProt P63165), which Kd (Ubc9 (Homo sapiens) [1]) is on record?
Answer: 350 nM

Question: And the Kd (Ubc9 (Homo sapiens) [2])?
Answer: 250 nM
